From patent US20260167684A1 (MERIDA BIOSCIENCES, published 2026)

Key:
FcγRIIA167H = biological target: T1, FcγRIIA167H (UniProt P12318 36-218); experiment: SPR, molecule captured on sensor chip, FcγRIIA167H as analyte, steady-state plot of response against concentration
T1 construct: Soluble protein used in SPR
T1 sequence (looked up): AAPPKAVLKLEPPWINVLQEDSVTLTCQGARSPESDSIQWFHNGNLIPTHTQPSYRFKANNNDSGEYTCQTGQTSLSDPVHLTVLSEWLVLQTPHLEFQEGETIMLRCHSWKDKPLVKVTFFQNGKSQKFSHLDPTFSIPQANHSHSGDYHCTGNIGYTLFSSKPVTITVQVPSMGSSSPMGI
Procedure: (§1) Binding assays using SPR were performed to determine the binding affinity of the exemplary molecules. Molecules were captured on a CM5 SPR chip. Increasing concentrations of FcγR analyte (FcγRIIA167H, FcγRIIA167R or FcγRIIB) were subsequently injected over the captured molecules and a single dissociation performed using single cycle kinetics. The data was then analyzed using steady state analysis which is suitable for low affinity interactions. In particular, a plot of response at equilibrium against the molecule concentration was generated.

FcγRIIA167R = biological target: T2, FcγRIIA167R (UniProt P12318 36-218); experiment: SPR; molecule captured on CM5 chip, FcγR as analyte; steady-state fit
T2 construct: Soluble protein used in SPR
T2 sequence (looked up): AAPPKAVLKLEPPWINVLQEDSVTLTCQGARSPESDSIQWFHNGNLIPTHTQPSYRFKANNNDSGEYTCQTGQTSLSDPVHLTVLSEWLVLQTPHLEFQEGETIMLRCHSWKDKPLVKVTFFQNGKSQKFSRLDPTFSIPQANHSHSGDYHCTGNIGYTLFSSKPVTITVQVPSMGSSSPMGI
Procedure: as §1

FcγRIIB = biological target: T3, FcγRIIB (human, UniProt P31994 46-217, limits assumed); experiment: as above
T3 construct: Soluble protein used in SPR
T3 sequence (looked up): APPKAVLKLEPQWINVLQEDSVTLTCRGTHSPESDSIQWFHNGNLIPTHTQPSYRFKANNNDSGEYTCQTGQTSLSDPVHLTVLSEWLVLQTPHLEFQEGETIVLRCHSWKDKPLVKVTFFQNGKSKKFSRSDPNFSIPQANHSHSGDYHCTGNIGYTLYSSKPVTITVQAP
Procedure: as §1

- binding result (FcγRIIA167H): no binding (tested: about 2.4e-6 M)
- Kd (FcγRIIA167R): 3490 nM
- Kd (FcγRIIB): 987 nM
B1: Variant G11 (Fc fusion)
chain 1: MGCSSPPCECHQEEDFRVTCKDIQRIPSLPPSTQTLKLIETHLRTIPSHAFSNLPNISRIYVSIDVTLQQLESHSFYNLSKVTHIEIRNTPNLTYIDPDALKELPLLKFLGIFNTGLKMFPPLTKVYSTDIFFILEITDNPYMTSIPRNAFQGLCNETLTLKLYNNGFTSVQGYAFNGTKLDAVYLNKNKYLTVIDKDAFGGVYSGPSLLDVSQTSVTALPSKGLEHLKELRARNTWTLDKTHTCPPCPAPELLGGDSVFLFPPKPKDTLMISRTPEVTCVVVDVSHEEGEVKFNWYVDGVEVHNAKTKPREEQYNSTYRVVSVLTVLHQDWLNGKEYKCKVSNKALPAPIEKTISKAKGQPREPQVYTLPPCREEMTKNQVSLWCLVKGFYPSDIAVEWESNGQPENNYKTTPPVLDSDGSFFLYSKLTVDKSRWQQGNVFSCSVMHEALHNHYTQKSLSLSPGK
chain 2: DKTHTCPPCPAPELLGGDSVFLFPPKPKDTLMISRTPEVTCVVVDVSHEEGEVKFNWYVDGVEVHNAKTKPREEQYNSTYRVVSVLTVLHQDWLNGKEYKCKVSNKALPAPIEKTISKAKGQPREPQVCTLPPSREEMTKNQVSLSCAVKGFYPSDIAVEWESNGQPENNYKTTPPVLDSDGSFFLVSKLTVDKSRWQQGNVFSCSVMHEALHNHYTQKSLSLSPGK
notes: Knob-in-hole heterodimer; also called TSHR260 2P2R huIgG1 Fc P238D/D270E/P271G
